Test results from publication doi:10.1101/2024.05.01.592117.

What was measured:
[1] = molecular target: 43S preinitiation complex (40S + eIFs 1, 1A, 5, 3j, eIF2-TC and eIF3) (human) (UniProt P23396); assay: native gel or EMSA
[2] = molecular target: 40S small ribosomal subunit (salt-washed, purified) (human) (UniProt P23396); assay: fluorescence polarisation
[3] = molecular target: 43S preinitiation complex (40S + eIFs 1, 1A, 5, 3j, eIF2-TC and eIF3) (human) (UniProt P23396); assay: fluorescence polarisation

Sequence of fluorescence-labeled Pdcd4-NTD (FL-Pdcd4-NTD, residues 1-156) (Q53EL6 1-156): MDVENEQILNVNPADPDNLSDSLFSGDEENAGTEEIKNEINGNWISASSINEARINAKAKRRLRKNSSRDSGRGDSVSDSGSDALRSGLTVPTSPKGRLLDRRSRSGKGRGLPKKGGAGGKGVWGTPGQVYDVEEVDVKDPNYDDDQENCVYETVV
Sequence of fluorescence-labeled full-length Pdcd4 (FL-Pdcd4) (Q53EL6 whole entry): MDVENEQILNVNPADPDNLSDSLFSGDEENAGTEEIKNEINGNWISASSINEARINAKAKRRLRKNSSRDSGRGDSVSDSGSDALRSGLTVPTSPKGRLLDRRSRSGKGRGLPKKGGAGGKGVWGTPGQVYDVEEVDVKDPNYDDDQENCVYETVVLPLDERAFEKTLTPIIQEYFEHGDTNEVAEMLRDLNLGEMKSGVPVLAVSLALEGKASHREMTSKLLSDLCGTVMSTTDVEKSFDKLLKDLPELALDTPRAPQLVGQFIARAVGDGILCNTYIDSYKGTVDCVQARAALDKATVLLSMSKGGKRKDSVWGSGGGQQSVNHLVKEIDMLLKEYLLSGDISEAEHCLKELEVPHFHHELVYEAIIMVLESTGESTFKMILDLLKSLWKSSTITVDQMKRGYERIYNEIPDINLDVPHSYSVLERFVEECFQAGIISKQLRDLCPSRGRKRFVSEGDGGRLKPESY
Sequence of Pdcd4 (programmed cell death 4), wild type, residues 1-469 (Q53EL6 whole entry, the tested form may be a part): as the sequence (Q53EL6 whole entry) above
Sequence of Pdcd4-NTD (residues 1-156), unlabeled (Q53EL6 1-156): as the sequence (Q53EL6 1-156) above

Row | Substance | percent binding compared to the 40S (lane 2) [1] | Ki [2] | fold reduction in affinity against the 40S alone [2] | fold reduction in affinity against the 40S alone [3]
1 | fluorescence-labeled full-length Pdcd4 (FL-Pdcd4) (from UniProt Q53EL6 1-469) (natural protein) | < 20% |  |  | 
2 | Pdcd4 (programmed cell death 4), wild type, residues 1-469 (from UniProt Q53EL6 1-469) (natural protein) |  | 23 nM |  | 
3 | fluorescence-labeled Pdcd4-NTD (FL-Pdcd4-NTD, residues 1-156) (from UniProt Q53EL6 1-156) (domain or fragment) | < 20% |  | > 10 fold | > 100 fold
4 | Pdcd4-NTD (residues 1-156), unlabeled (from UniProt Q53EL6 1-156) (domain or fragment) |  | 21 nM |  | 
